Experiment [1] addresses T1, Human CD122 (human, UniProt P14784 27-551).
T1 sequence: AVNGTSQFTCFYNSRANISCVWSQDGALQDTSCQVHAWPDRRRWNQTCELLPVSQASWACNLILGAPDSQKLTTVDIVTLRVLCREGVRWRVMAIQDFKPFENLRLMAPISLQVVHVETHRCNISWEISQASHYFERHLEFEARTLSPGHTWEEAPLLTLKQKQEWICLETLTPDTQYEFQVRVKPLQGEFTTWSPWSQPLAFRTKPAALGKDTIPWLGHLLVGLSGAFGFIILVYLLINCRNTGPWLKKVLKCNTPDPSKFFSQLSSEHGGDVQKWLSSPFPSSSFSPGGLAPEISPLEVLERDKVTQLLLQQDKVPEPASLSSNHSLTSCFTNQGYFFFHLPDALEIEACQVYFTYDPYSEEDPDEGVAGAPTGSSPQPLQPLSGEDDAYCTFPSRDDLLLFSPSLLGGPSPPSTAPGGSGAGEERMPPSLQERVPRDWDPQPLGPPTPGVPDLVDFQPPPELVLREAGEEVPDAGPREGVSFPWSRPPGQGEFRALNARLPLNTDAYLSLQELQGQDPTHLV
The experiment is described as follows: cell-based or functional assay.

Experiment [2] concerns the target T2, Human BCAM protein (human, UniProt P50895 32-547, limits assumed).
T2 construct: Protein used in ELISA; also called BCAM (ELISA antigen)
T2 sequence: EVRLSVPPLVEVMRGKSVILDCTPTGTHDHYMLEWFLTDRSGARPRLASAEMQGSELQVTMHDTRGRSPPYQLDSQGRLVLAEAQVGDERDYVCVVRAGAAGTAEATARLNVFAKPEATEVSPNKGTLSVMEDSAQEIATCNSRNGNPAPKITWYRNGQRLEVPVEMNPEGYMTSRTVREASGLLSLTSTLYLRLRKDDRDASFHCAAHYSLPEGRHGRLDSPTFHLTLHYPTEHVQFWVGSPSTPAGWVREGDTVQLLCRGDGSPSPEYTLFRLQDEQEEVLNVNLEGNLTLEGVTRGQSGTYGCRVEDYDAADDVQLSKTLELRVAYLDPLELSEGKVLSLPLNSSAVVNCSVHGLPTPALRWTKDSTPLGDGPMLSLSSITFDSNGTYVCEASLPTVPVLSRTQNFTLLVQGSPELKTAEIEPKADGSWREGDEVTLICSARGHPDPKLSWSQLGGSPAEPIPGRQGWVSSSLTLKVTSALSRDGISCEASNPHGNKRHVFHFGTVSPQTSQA
The experiment in a line: binding ELISA on human BCAM protein, IgG at log10 about 1.1 to 3.0 nM, OD450nm.

Experiment [3] addresses T3, Human CD122 His tagged (human, UniProt P14784 27-240).
T3 construct: also called hCD122; monomeric antigen; not shown: His tag
T3 sequence: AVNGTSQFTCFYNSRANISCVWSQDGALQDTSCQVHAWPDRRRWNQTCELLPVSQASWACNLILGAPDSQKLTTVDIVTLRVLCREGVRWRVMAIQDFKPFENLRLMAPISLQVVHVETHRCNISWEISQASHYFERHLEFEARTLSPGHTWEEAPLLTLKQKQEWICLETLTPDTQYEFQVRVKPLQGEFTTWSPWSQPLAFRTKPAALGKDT
The experiment is described as follows: Biacore, Fab affinity and kinetics on hCD122. For orientation: Surface plasmon resonance follows binding to a sensor surface in real time, without labels.

The target of experiment [4] is T3, Human CD122 His tagged. The experiment in a line: Biacore SPR, Fab, 1:1 binding.
Experiment [5] deals with T4, Human neudesin protein (human, UniProt Q9UMX5 32-172).
T4 construct: also called NENF
The experiment is described as follows: BIACORE SPR, Fab at 62.5, 125, 250, 500 and 1000 nM on human neudesin protein; Rmax.

The target in experiment [6] is T5, Rhesus CD122 His tag (rhesus monkey, UniProt Q38J85 27-240 (cynomolgus entry)).
T5 construct: also called rhCD122; cynomolgus and/or rhesus monkey CD122 His tag; not shown: His tag
T5 sequence: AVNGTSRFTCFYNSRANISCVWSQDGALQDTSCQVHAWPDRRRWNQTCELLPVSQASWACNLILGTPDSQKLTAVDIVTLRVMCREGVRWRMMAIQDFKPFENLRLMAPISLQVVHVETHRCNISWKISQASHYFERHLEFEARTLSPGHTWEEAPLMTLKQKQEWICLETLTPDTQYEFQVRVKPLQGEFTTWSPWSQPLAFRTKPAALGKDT
The experiment in a line: Biacore SPR, Fab, 1:1 binding.

Experiment [7] addresses T5, Rhesus CD122 His tag. The experiment is described as follows: Biacore SPR, Fab.
Experiment [8] addresses T3, Human CD122 His tagged. The experiment in a line: Biacore SPR, Fab.
The target of experiment [9] is T6, Human CILP2 protein (human, UniProt Q8IUL8 21-1156, limits assumed).
T6 construct: also called cartilage intermediate layer protein 2
T6 sequence (looked up): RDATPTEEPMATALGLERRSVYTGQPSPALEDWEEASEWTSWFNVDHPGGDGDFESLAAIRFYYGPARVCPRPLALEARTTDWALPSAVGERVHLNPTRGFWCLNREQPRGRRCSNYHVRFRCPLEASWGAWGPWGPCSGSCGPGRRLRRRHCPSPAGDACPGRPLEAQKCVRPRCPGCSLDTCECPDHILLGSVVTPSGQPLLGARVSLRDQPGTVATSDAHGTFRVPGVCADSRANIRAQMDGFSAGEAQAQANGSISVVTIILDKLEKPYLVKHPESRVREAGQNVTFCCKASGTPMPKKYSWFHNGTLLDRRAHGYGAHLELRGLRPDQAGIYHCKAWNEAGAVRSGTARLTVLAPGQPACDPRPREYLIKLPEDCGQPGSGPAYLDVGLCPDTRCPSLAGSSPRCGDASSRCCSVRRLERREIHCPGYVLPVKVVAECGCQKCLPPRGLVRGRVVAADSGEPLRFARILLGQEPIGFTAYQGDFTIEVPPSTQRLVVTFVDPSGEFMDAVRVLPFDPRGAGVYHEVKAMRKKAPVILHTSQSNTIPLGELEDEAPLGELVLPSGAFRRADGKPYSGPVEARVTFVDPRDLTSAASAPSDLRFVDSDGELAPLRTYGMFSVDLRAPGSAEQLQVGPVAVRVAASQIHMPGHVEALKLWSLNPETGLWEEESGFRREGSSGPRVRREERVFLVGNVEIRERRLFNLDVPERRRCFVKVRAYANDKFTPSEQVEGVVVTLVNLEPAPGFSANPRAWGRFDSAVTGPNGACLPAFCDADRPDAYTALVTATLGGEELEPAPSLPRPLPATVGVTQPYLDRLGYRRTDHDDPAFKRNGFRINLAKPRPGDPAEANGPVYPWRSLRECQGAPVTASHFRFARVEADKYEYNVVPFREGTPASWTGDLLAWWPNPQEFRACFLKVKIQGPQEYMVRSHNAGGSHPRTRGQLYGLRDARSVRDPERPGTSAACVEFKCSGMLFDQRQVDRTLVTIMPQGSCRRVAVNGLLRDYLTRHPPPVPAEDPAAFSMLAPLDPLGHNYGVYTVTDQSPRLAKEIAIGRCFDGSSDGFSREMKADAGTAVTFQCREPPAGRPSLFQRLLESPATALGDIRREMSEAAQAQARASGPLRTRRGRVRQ
The experiment in a line: BIACORE SPR, Fab at 62.5, 125, 250, 500 and 1000 nM on human CILP2 protein; Rmax.

Experimental findings from patent US20230357420A1 (VILLARIS THERAPEUTICS, published 2023) are described below.

T4 sequence (Q9UMX5 32-172 limits assumed): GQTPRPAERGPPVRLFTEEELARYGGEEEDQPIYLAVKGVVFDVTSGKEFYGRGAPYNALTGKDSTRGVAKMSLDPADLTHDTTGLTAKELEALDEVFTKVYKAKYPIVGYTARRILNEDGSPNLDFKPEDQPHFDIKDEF

B1: MAB05 (antibody, V domains shown)
VH: EVQLLESGGGLVQPGGSLRLSCAASGFTVTSYAVHWVRQAPGKGLEWLGVIWSGGSTDYNAAFISRLTISKDNSKNTVYFQMNSLRAEDTAVYYCARAGDANYDGFAYWGQGTLVTVSS
VL: DIQMTQSPSSLSASVGDRVTITCQASQSVSFLYWYQQRPGKAPRLLIYDTSNLASGVPSRFSGSGSGTSYTFTISSLQPEDIATYYCQQWSTYPLTFGQGTKVEIK
notes: also called Mab5; clone 05
As for B1, in experiment [1], the “IC50, IL-15-induced CD4+ T cell accumulation” value came to 2.1 µg/mL; the “IC50, IL-15-induced skin-resident CD8+ T cell accumulation” value stood at 1.9 µg/mL; the “fold improvement of potency over VillMab-1, IL-15 stimulated M07e assay” value was approximately 2 fold. In addition, the binding result in experiment [2] was “no binding (tested: 1000 nM (log10 3.0))”.

B2: MAB14 (antibody, human IgG1, V domains shown)
VH: EVQLLESGGGLVQPGGSLRLSCAASGFSVTSYGVHWIRQAPGKGLEWLGVIWSGGSTDYNAAFISRLTISKDNSKNTVYFQMNSLRAEDTAVYYCARAGDANYDGFAYWGQGTLVTVSS
VL: DIQMTQSPSSLSASVGDRVTITCQASQSVSFLYWYQQRPGKAPRLLIYDTSNLASGVPSRFSGSGSGTSYTFTISSLQPEDIATYYCQQWSTYPLTFGQGTKVEIK
notes: also called clone 14
For B2, the binding result in experiment [2] is reported as “binds”.

B3: MAB17 (antibody, human IgG1, V domains shown)
VH: EVQLLESGGGLVQPGGSLRLSCAASGFSVTSYGVHWIRQAPGKGLEWLGVIWSGGSTDYNAAFISRLTISKDNSKNTVYFQMNSLRAEDTAVYYCARAGDYNYDGFAYWGQGTLVTVSS
VL: DIQMTQSPSSLSASVGDRVTITCQASQSVSFLYWYQQRPGKAPRLLIYDTSNLASGVPSRFSGSGSGTSYTFTISSLQPEDIATYYCQQWSTYPLTFGQGTKVEIK
notes: also called clone 17
As for B3, the binding result in [2] is “binds”.

B4: MAB06 (antibody, V domains shown)
VH: EVQLLESGGGLVQPGGSLRLSCAASGFTVTSYAVHWVRQAPGKGLEWLGVIWSGGSTDYNAAFISRLTISKDNSKNTVYFQMNSLRAEDTAVYYCARAGDANYDGFAYWGQGTLVTVSS
VL: DIQMTQSPSSLSASVGDRVTITCQASSSVSFMYWYQQRPGKAPRLLIYDTSNLASGVPSRFSGSGSGTSYTFTISSLQPEDIATYYCQQWSTYPLTFGQGTKVEIK
notes: also called Mab6; clone 06
For the molecule B4, in [1], the “IC50, IL-15-induced CD4+ T cell accumulation” value is 1.8 µg/mL; the “IC50, IL-15-induced skin-resident CD8+ T cell accumulation” value worked out at 1.8 µg/mL; the “fold improvement of potency over VillMab-1, IL-15 stimulated M07e assay” value is approximately 2 fold. Moreover, in [2], the binding result was “no binding (tested: 1000 nM (log10 3.0))”.

B5: VillFab-1 (Fab, V domains shown)
VH: EVQLLESGGGLVQPGGSLRLSCAASGFSVTSYGVHWIRQAPGKGLEWLGVIWSGGSTDYNAAFISRLTISKDNSKNTVYFQMNSLQAEDTAIYYCARAGDYNYDGFAYWGQGTLVTVSS
VL: DIVLTQSPSSLSASVGDRVTITCSGSSSVSFMYWYQQRPGKAPRLLIYDTSNLASGVPSRFSGSGSGTSYTFTISSLQPEDIATYYCQQWSTYPLTFGQGTKVEVK
notes: also called Villmab-1 in human Fab format
Regarding B5, the equilibrium dissociation constant (Kd) in [3] was found to be 12.4 nM; in experiment [4] it was 16.5 nM; in [6] it was 12 nM; in experiment [7], 10.2 nM; in experiment [8] it was 12.4 nM. Moreover, the koff in [3] was 0.0034 s⁻¹; in experiment [4], 0.00372 s⁻¹; in experiment [6], 0.00279 s⁻¹. Besides, the kon worked out at 270000 M⁻¹ s⁻¹ in experiment [3], 226000 M⁻¹ s⁻¹ in experiment [4] and 233000 M⁻¹ s⁻¹ in experiment [6]. Also, the binding result in experiment [5] and in [9] was “no binding (tested: 1000 nM)” throughout.

For orientation: Kd means the constant that tells how readily two partners part at equilibrium. Low values mean a tighter complex, high ones a looser complex. As usually defined, the koff is a measure of how fast the partners let go of each other. Higher therefore signals fast dissociation. The term kon denotes the rate constant with which the complex forms. A higher kon goes with faster complex formation.
